According to patent US6881545 (Takeda / Millennium, dated 2005):
No end group written: not given here.

Molecular target: T1, human pituitary-derived G protein-coupled receptor protein encoded by phGR3 (hGR3), expressed on CHO-19P2 / … (human, UniProt P49683 1-370)
T1 construct: CHO-19P2-9 is a monoclone of CHO-19P2 selected for a stronger response to 19P2-L31; also called full-length receptor protein; 19P2 receptor
T1 sequence: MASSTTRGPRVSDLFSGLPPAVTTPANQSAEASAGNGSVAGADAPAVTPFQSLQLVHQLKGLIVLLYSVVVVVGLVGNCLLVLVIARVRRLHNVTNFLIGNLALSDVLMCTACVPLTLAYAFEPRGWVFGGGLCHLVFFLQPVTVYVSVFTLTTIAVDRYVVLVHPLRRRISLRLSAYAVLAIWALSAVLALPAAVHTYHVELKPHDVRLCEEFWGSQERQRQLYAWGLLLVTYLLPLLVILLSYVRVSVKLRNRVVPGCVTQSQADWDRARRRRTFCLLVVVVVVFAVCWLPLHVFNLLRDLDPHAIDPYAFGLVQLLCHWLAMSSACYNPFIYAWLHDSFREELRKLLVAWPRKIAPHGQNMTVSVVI
Assay: radioligand binding on live CHO-19P2-9 cells, 200 pM tracer, non-specific binding with 200 nM unlabeled 19P2-L31, filtration
Source text: As receptor-expressing CHO cells, CHO-19P2-9; mono-clone of CHO-19P2, CHO-UHR-1, and mock CHO were used in this experiment. CHO-19P2-9 cells are ones selected from CHO-19P2 cells by ultradilution technique using 96-well microplate as clone which indicated stronger arachidonic acid metabolic-release promoting reaction by 19P2-L31. The mock CHO cells are ones for control which were transformed with expression vector pAKKO alone. These cells cultured in flasks for culturing tissues were harvested with 5 mM EDTA/PBS, and then resuspended in HBSS containing 0.05% BSA and 0.05% CHAPS at 0.5 ×10^7 cells/ml. […] The reaction mixture were diluted with 2 ml of an ice-cold beffer (50 mM Tris-HCl pH7.5 containing 5 mM EDTA, 0.05% BSA, and 0.05% CHAPS) and immediately filtered though glass filters GF/F (Whattman) which were pre-wetted with the buffer containing 0.3% polyethylenimine. The glass filters were subjected to γ-counting. Non-specific binding was determined in the presence of 200 nM unlabeled 19P2-L31.

B1: [^125I]-19P2-L31 (19P2-L31 radioiodinated with [^125I]-Bolton-Hunter Reagent) (peptide)
peptide: SRAHQHSMEIRTPDINPAWYAGRGIRPVGRF-NH2
modifications: also: radioiodinated with [125I]-Bolton-Hunter reagent, site not given here
notes: also called radioiodinated 19P2-L31; radioiodinated ligand polypeptide
  binding result: binds
